Assay [1] concerns the target T1, binding between IKKβ and full-length Regnase-1 (FL_Reg1) (Homo sapiens, UniProt Q5D1E8).
T1 construct: made in house; host or cells: Expi293 cells
T1 sequence (Q5D1E8 1-599): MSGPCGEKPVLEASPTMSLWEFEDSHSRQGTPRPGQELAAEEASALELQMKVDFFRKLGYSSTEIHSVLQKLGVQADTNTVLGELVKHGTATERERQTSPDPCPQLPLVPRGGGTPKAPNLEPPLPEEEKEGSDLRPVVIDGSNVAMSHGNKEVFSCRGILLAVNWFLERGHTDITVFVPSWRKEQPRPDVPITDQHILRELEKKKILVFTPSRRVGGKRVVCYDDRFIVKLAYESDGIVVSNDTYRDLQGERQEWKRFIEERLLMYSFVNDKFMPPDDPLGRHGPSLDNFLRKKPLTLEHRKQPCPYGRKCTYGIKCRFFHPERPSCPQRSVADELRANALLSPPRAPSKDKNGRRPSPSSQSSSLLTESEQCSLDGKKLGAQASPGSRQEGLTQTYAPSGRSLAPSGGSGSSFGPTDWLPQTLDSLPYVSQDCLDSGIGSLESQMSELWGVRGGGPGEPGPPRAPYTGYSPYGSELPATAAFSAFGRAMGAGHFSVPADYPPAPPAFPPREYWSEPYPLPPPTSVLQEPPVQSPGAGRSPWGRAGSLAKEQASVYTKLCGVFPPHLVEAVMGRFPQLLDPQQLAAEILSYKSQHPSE
In words: Inhibition of kinase-Regnase-1 binding by the compounds (AlphaScreen), IKKβ. To be noted: Table 14; binding between IKKβ and Regnase-1; read-out: Binding inhibition FL_Reg1, 50% inhibition concentration (IKKβ). As to the method:
(§1) As a target protein, a construct having a FLAG tag on the N-terminal side and a recognition sequence for biotin ligase BirA on the C-terminal side of the full-length sequence of human Regnase-1 (UniProt ID: Q5D1E8) was prepared (FL_Reg1). The above-mentioned Regnase-1 was expressed in mammalian Expi293 cells, purified with FLAG M2 agarose, and isolated by gel filtration chromatography. When biotinylation was required, methods from nonpatent documents (BMC biotechnology, 2008,8,41; and Protein Science, 1999,8,921-929) were used.
(§2) After mixing 2.5 nM of the above-mentioned Regnase-1 and the compound, 2.5 nM of IKKβ or TBK1 was added and reacted at room temperature for two hours. Then, Anti FLAG AlphaLISA Acceptor Beads (manufactured by PerkinElmer) and Glutathione-coated AlphaScreen Donor Beads (manufactured by PerkinElmer) were added, and excited luminescence was measured using En Vision (manufactured by PerkinElmer). As the results, the inhibition rate from the signals obtained when adding the compound at each concentration were calculated, by defining the signal obtained with Regnase-1 alone to be 100% inhibition rate, and the signal obtained when the same amount of solvent (DMSO) is added in place of the compound as 0% inhibition rate. The 50% inhibition concentration (μM) was calculated from the obtained dose response curve (Table 12).
(In general: Bead proximity is the source of the signal in Alpha formats.)

In assay [2] the target is T2, FL_Reg1 (full-length human Regnase-1) phosphorylation by TBK1 (Homo sapiens, UniProt Q5D1E8).
T2 construct: made in house; host or cells: Expi293 cells
T2 sequence (Q5D1E8 1-599): T1 sequence (Q5D1E8 1-599)
In words: Regnase-1 phosphorylation inhibition by compounds (AlphaScreen), TBK1, full-length Regnase-1. The assay is classed as biochemical. To be noted: Table 13; phosphorylation by TBK1; read-out: Phosphorylation inhibition FL_Reg1, 50% inhibition concentration (TBK1). The source says: (§3) The full-length sequence of human Regnase-1 (UniProt ID: Q5D1E8) was used to prepare a construct having a FLAG tag on the N-terminal side and a recognition sequence for biotin ligase BirA on the C-terminal side (FL_Reg1) as a target protein. The above-mentioned Regnase-1 was expressed in mammalian Expi293 cells, purified with FLAG M2 agarose, and isolated by gel filtration chromatography. When biotinylation was required, methods from nonpatent documents (BMC biotechnology, 2008,8,41; and Protein Science, 1999,8,921-929) were used. […]
(§4) Using Kinase assay buffer III (manufactured by SignalChem) supplemented with 2 mM DTT, 100 μM sodium vanadate, and 2 mM manganese chloride, kinase (IKKβ (manufactured by SignalChem) or TBK1 (manufactured by SignalChem)) and Regnase-1 were reacted in the presence of 10 μM ATP at room temperature for 2 hours to perform a phosphorylation reaction.
(§5) Phosphorylated Regnase-1 was detected by the AlphaScreen system. After each of the above-mentioned phosphorylated Regnase-1 antibodies was added and reacted at room temperature for one hour, anti-FLAG AlphaLISA Acceptor Beads (manufactured by PerkinElmer) and Protein A AlphaScreen Donor Beads (manufactured by PerkinElmer) were added, and EnVision (manufactured by PerkinElmer) was used to measure the excited luminescence. As a result, phosphorylated Regnase-1 produced by the phosphorylation reaction by kinase was specifically detected, and signals were confirmed to be enhanced in a manner dependent on Regnase-1 and kinase concentrations (FIG. 24).
(§6) After mixing 2 nM of the above-mentioned Regnase-1 and the compound, phosphorylated Regnase-1 produced by the phosphorylation reaction was detected by the AlphaScreen system. As the results, the inhibition rate was calculated from the signals obtained when adding the compound at each concentration, by defining the signal obtained with Regnase-1 alone to be 100% inhibition rate, and the signal obtained when the same amount of solvent (DMSO) is added in place of the compound as 0% inhibition rate. The 50% inhibition concentration (μM) was calculated from the obtained dose response curve (Table 11).

The target of assay [3] is T3, FL_Reg1 (full-length human Regnase-1) phosphorylation by IKKβ (Homo sapiens, UniProt Q5D1E8).
T3 construct: made in house; host or cells: Expi293 cells
T3 sequence (Q5D1E8 1-599): T1 sequence (Q5D1E8 1-599)
In words: Regnase-1 phosphorylation inhibition by compounds (AlphaScreen), IKKβ, full-length Regnase-1. The assay is classed as biochemical. To be noted: Table 14; phosphorylation by IKKβ; read-out: Phosphorylation inhibition FL_Reg1, 50% inhibition concentration (IKKβ).
Description: as §3, §4, §5, §6

Assay [4] deals with T4, binding between TBK1 and full-length Regnase-1 (FL_Reg1) (Homo sapiens, UniProt Q5D1E8).
T4 construct: made in house; host or cells: Expi293 cells
T4 sequence (Q5D1E8 1-599): T1 sequence (Q5D1E8 1-599)
As to the kind of experiment: Inhibition of kinase-Regnase-1 binding by the compounds (AlphaScreen), TBK1. Conditions: Table 13; binding between TBK1 and Regnase-1; read-out: Binding inhibition FL_Reg1, 50% inhibition concentration (TBK1). As to the method:
as §1, §2

In assay [5] the target is T5, C-terminal human Regnase-1 (amino acids 301 to 599) with N-terminal FLAG tag and C-terminal BirA recognition … (human, UniProt Q5D1E8 301-599).
T5 sequence: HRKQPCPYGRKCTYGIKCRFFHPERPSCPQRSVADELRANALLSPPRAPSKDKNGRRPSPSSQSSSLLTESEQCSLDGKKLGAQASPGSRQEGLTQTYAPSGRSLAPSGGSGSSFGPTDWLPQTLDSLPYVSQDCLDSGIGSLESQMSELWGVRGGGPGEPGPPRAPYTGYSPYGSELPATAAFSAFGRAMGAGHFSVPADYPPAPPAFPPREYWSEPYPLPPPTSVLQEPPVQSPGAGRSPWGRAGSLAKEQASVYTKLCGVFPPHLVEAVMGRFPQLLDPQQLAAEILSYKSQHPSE
As to the kind of experiment: cell-based or functional assay.

Assay [6] addresses T6, C-terminal domain-deleted human Regnase-1 (amino acids 1 to 546) with N-terminal FLAG tag and C-terminal BirA … (human, UniProt Q5D1E8 1-546).
T6 sequence: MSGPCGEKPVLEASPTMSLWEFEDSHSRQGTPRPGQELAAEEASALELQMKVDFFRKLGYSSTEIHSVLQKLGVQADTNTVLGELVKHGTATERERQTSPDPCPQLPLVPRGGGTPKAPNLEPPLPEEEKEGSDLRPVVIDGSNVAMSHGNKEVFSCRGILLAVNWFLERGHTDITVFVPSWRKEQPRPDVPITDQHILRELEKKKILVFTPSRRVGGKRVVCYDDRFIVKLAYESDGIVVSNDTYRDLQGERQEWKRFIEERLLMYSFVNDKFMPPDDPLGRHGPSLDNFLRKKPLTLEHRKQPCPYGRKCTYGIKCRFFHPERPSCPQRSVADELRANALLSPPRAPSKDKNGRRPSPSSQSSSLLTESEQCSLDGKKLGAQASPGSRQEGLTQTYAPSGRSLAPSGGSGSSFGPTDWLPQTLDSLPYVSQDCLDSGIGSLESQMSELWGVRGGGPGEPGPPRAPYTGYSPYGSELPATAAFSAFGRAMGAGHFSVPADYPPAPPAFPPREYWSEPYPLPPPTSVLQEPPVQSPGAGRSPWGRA
In words: cell-based or functional assay.

Assay [7] has as its target T7, full-length human Regnase-1 with a FLAG tag on the N-terminal side and a biotin ligase BirA recognition … (human, UniProt Q5D1E8 1-599, biotinylated at the BirA recognition sequence when required).
T7 sequence: T1 sequence (Q5D1E8 1-599)
As to the kind of experiment: cell-based or functional assay.

Assay [8] deals with T5, C-terminal human Regnase-1 (amino acids …). As to the kind of experiment: cell-based or functional assay. The source holds these as a separate data set.
Assay [9] deals with T6, C-terminal domain-deleted human …. In words: cell-based or functional assay. The source holds these as a separate data set.
The target of assay [10] is T7, full-length human Regnase-1 with a FLAG …. In words: cell-based or functional assay. This is another data set of the same source.

Positions of bridges follow the written chain, without caps; N, C: chain ends. Non-standard residues stand in square brackets, D forms with d. Residues, ends and D or L forms follow the SMILES beside them. *: point of attachment. Pyrrolidide = C1CCN(*)C1; dNMeA = CN[C@H](C)C(=O)O

With `CC[C@H](C)[C@@H]1NC(=O)[C@H](Cc2c[nH]c3ccccc23)NC(=O)[C@H](C)N(C)C(=O)C[C@@H](C(=O)N2CCCC2)NC(=O)[C@H](CCC(=O)O)NC(=O)[C@H](CC(N)=O)NC(=O)[C@H](Cc2c[nH]c3ccccc23)NC(=O)[C@H](Cc2ccccc2)NC(=O)[C@H](CC(=O)O)NC(=O)[C@H](Cc2c[nH]c3ccccc23)NC1=O` [PP24] (HELM PEPTIDE1{[meA].W.I.W.D.F.W.N.E.D.[C1CCN([*:1])C1]}$PEPTIDE1,PEPTIDE1,1:R1-10:R3$$$V2.0), the IC50 in [1] was 8.8 µM; in assay [2], 35.7 µM; in assay [3] it was 5.3 µM; in assay [4], 7.7 µM.
As for `CC[C@H](C)[C@@H]1NC(=O)[C@H](CCCCN)NC(=O)[C@H](Cc2ccc(O)cc2)NC(=O)[C@H](Cc2c[nH]c3ccccc23)NC(=O)[C@H](CO)NC(=O)[C@H](CO)NC(=O)[C@H](Cc2c[nH]cn2)NC(=O)CNC(=O)[C@H](Cc2ccc(O)cc2)NC(=O)[C@H]([C@@H](C)O)NC(=O)[C@@H](C)N(C)C(=O)C[C@@H](C(=O)N2CCCC2)NC(=O)[C@H](Cc2c[nH]c3ccccc23)NC1=O` [PP9] (HELM PEPTIDE1{[C[C@H](C(=O)[*:2])N(C)[*:1]].T.Y.G.H.S.S.W.Y.K.I.W.D.[C1CCN([*:1])C1]}$PEPTIDE1,PEPTIDE1,1:R1-13:R3$$$V2.0), the IC50 in assay [1] was found to be 10.6 µM; in [2] it was 4.2 µM; in assay [3] it was 2.7 µM; in assay [4], 8.3 µM.
As for [dNMeA]EDTPEDDHD-Pyrrolidide (lactam N-10) [PP25], the results for the “50% inhibition concentration, Regnase-1 phosphorylation by TBK1 (AlphaScreen)” value in assay [5], in assay [6] and in [7] were 16.3 µM, 16.1 µM and 18.9 µM, respectively. The “50% inhibition concentration, Regnase-1 phosphorylation by IKKβ (AlphaScreen)” value is 27.6 µM in assay [8], 47.7 µM in assay [9] and 27 µM in [10].

B1: PP24 (peptide)
peptide: XWIWDFWNED
HELM: PEPTIDE1{[meA].W.I.W.D.F.W.N.E.D.[C1CCN([*:1])C1]}$PEPTIDE1,PEPTIDE1,1:R1-10:R3$$$V2.0
SMILES: CC[C@H](C)[C@@H]1NC(=O)[C@H](Cc2c[nH]c3ccccc23)NC(=O)[C@H](C)N(C)C(=O)C[C@@H](C(=O)N2CCCC2)NC(=O)[C@H](CCC(=O)O)NC(=O)[C@H](CC(N)=O)NC(=O)[C@H](Cc2c[nH]c3ccccc23)NC(=O)[C@H](Cc2ccccc2)NC(=O)[C@H](CC(=O)O)NC(=O)[C@H](Cc2c[nH]c3ccccc23)NC1=O
For the molecule B1, the “50% inhibition concentration, Regnase-1 phosphorylation by TBK1 (AlphaScreen)” value in assay [5] is 34.8 µM; in assay [6], 27.3 µM; in assay [7] it was 35.7 µM. Further, the “50% inhibition concentration, Regnase-1 phosphorylation by IKKβ (AlphaScreen)” value in assay [8] is 7.2 µM; in assay [9] it was 4 µM; in assay [10], 5.3 µM.

(Values after patent publication US20250018014A1, “METHOD FOR TREATING AND/OR PREVENTING REGNASE-1-RELATED DISEASE” (OSAKA UNIVERSITY, priority 2018, published 2025).)
